Results on seven molecules are retold here after publication PMC9231621 (Proceedings of the National Academy of Sciences of the …, 2022).

B1: MPV482 (antibody, V domains shown)
VH: QVQLVQSGGGVVQPGRSLRLSCAASGFTFSSFAMHWVRQAPGKGLEWVALISDDGNNKYHADSVKGRFTISRDSSKNTLYLQMNSLRGEDTAVYYCARDGSVVGAAAHCDHWGQGTLVTVSS
VL: SYELTQPPSVSVSPGQTARITCSGDALPNQCAYWYQQKPGLAPVLLIYKDKERPSGIPERFSGSISGTTVTLTISGVQAEDEADYYCQSSDSSSTVVFGGGTKLTVL
B2: MPV454 (antibody, V domains shown)
VH: QVQLVESGGGLVKPGGSLRLSCSTSGFVFSSYAMHWVRQAPGKGLEHVSAISSTGDNTHYADSVKGRFTISRDNSRGRLYLQMTSVRPEDAALYYCVKDLYSGRFYYFLDDWGQGTRIIVSS
VL: DIQVTQSPSSLSASVGDRVTISCRASQNISNYLNWFQQRPGKAPKLLIYVASTLQSGAPSRFSGSGSGTDFTLTITDLQPEDFATYYCQQSYNTPPITFGQGTRLEIK
B3: MPV481 (antibody, V domains shown)
VH: QVQLVQSGGGLVKPGGSLRLSCAASGLPFNNAWMNWVRQAPGKGLEWVGRIKSKIDGGTTEYAAPVKGRFTISRDDSENTLYLQMNSLRTEDTAVYYCTTEYYALLSGNYSDCWGQGTLVTVSS
VL: IRLMTQSPFSLSLSPGERATLSCRASQSIKRAYLGWYQQKPGQAPRLLIYGASNRATGIPDRFSGSGSGTDFTLTISRLEPEDFAVYYCQQYGDSPGGSFGQGTKLEIR
B4: MPV464 (antibody, V domains shown)
VH: QVQLQESGPGLVKPSQTLSLTCTVSGGSVRGGGDYWSWIRRPPGKGLEWIGHIYNSGTTFYNPSLKSRVTISIDTSKNQFSLKLRSVTAADTAVYYCGRVGSRATGLPDWIDPWGQGTLVTVSS
VL: SYELTQPPSVSVSPGQTATITCSGTNLGAKYSCWYQQKPGQSPVLVIFQDNKRASGIPARFSASTSGDTATLTISGTQVMDEADYFCQAWDSRTAVFGGGTTLTV
B5: MPV485 (antibody, V domains shown)
V domain 1: QVQLQEPGPGLVKPSETLSLTCTVSGGSISSTNSFWGWVRQPPGKGLEWIGSIYYSGTTYYNSSLKSRVTISVDTSKNQFSLRLSSVTAADTAVYYCARQGLTSSWYDGSGLDVWG
V domain 2: SYELTQPPSVSVSPGQTASITCSGDKLGNKYACWYQQRPGQSPVLVIYQDTKRPSGIPERFSGSNSGNTATLTISGTQAMDEADYYCQAWDSNTVVFGGGTKLTVL
B6: MPV491 (antibody, V domains shown)
VH: QVQLQESGPGLVKSSQTLSLTCTVSGGSISSVTSHWTWIRQHPGKGLEWIGYIFSSGTTYYSPSLRSRLTMSVDTSKNQFSLQLSSVTAADTAMYYCARGIYCGDSCYKGTDYWGRGTLVTVSS
VL: IRLMTQTPVTLPVTPGEPASISCRSSQSLLHSNGYNYLDWYLQKPGQSPQLLIYRGSTRASGVPDRFSGSGSGTEFTLKISRVEAEDVGVYYCMQGLQTPYTFGQGTKLESR
B7: MPV486 (antibody, V domains shown)
VH: QVQLVESGGHLVQSGGSLRLSCAASGFTFSNYILNWVRQAPGKGLEWISYITGGSSAIYYADSVKGRFTISRDDAKNSLYLQMNNLRAEDTAVYYCARSHGYDSSGYYYYFAMDVWGQGTTVTVSS
VL: QSVLTQPPSASGTPGQRVTISCSGSNSNIESNTVNWYQQIPGTAPKLLIYSDNRRPSGVPDRFSGSKSGTSASLAISGLQSEDEADYYCAAWDDSLIGYVFGTGTKVTV

One test has as its target hMPV A1 F monomer (trypsinized monomeric prefusion hMPV F) (human metapneumovirus subgroup A1; …, UniProt H6X1Z1, strain).
As for B1, the binding result is recorded as “binds”.

On to B2, for which the binding result is reported as “binds”.

As to B3, the binding result is given as “binds”.

Regarding B4, the binding result is “binds”.

With B5, the binding result is “binds”.

As for B6, the binding result is reported as “binds”.

Consider B7, for which the binding result is listed as “binds”.

Another test addresses hMPV A1 F trimer (heated), postfusion hMPV F (human metapneumovirus subgroup A1; …, UniProt H6X1Z1, strain).
In the case of B1, the binding result is on record as “binds”.

For B2, the binding result was “binds”.

With B3, the binding result is recorded as “binds”.

Consider B4, for which the binding result is “binds”.

As for B5, the binding result is “binds”.

Turning to B6, the binding result is given as “binds”.

For the molecule B7, the binding result is recorded as “binds”.
